The results in this text go back to the nanobody polyreactivity screen of Harvey et al. (2022).

A short description of this series: yeast display, Sf9 membrane polyspecificity reagent, FACS + sequencing; frameworks hold sequencing errors. In outline: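 Sorting gates, low and high (top ~1%), were placed on anti-HA fluorescence to track expression and on streptavidin fluorescence to track reagent binding. A clone's polyreactivity label is taken from the gate it came out of. The reagent was 10% biotinylated, detergent-solubilized Sf9 membrane, applied for 1 hour at 4 °C to galactose-induced yeast display cells.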
For the sequence “QVQLVESGGGLVQAGGSLRLSCAASGGILVFYAMGWYRQAPGKERELVAAITKRGTSTYYADSVKGRFTISRDIEKNTVYLQMNSLKPEDTAVYYCAAESIPYYRYDYWGQGSQVTVSS”, the “polyreactivity (PSR sort gate)” value is on record as “low polyreactivity”.
To “QVQLVESGGGLVQAGGSLRLSCAASGGILYYYAMGWYRQAPGKEREMVAAISSGGRTNYADSVKGRFTISRDNAMNTVYLQMNSLNPEDTAVYYCAARGATGFRRYGVTHYYYWGQGTQVNVSS” belongs “high polyreactivity”; to “QVQLVESGGGLVQAGGSLRLSCAASGGISTAYTMGWYRQEPGKERELVADITRSGGRTYYADSVKGRFTISRDTAKNNVYLQMNSLKPEDTAVYYCARTYYYRFNYWGQGTQVTVSS”, “high polyreactivity”.
As for “QVQLVESGGGLVQAGGSLRLSCAASGGIVSVYAMGWYRQAPGQERELVASITVSGGSTSYADSVKGRFTISRDNAKNTVYLQMNSLIPEDTAVYYCNTDFGQAHTLSWYEDMDYWGQGTQVTVSS”, the entry is “low polyreactivity”; as for “QVQLVESGGGLVQAGGSLRLSCAASGGLFIGYAMGWYRQAPGKERELVAAISYSGGSTYYADSVKGRFTISRDNAKNTVYLQMNSLKPEDTAVYYCAAQVDRKYRWFNSWGQGTQVTVSS”, “high polyreactivity”; as for “QVQLVESGGGLVQAGGSLRLSCAASGGMGWYRQAPGKERELVATISSVGSTNYADSVKGRFTISRDNAKNTVYLQMNSLKPEDTAVYYCAADYGSDYTKGDYWGQGTQVTVSS”, “low polyreactivity”.
Take “QVQLVESGGGLVQAGGSLRLSCAASGGSFYPYAMGWSRQAPGKERELLAAISWSGDITYYADSVKGRFTISRDNANNTVYLQMNSLKPEDTAVYYCAAGRVVDKDPSYFREGDYWGQGTQVTVSS”: the “polyreactivity (PSR sort gate)” value is recorded as “low polyreactivity”.
To “QVQLVESGGGLVQAGGSLRLSCAASGGTFAGYAMGWYRQAPGKERELVAAISWSSGRTYYADSVKGRFTISRDIAKNSVYLQMNSLKPEETAVYDCTVLRYRGYDYWGQGTQVTVSS” belongs “high polyreactivity”; to “QVQLVESGGGLVQAGGSLRLSCAASGGTFAIYAMGWYRQAPGKYRELVASINSGGSTNNADSVKGRFTISRDNAKNTVYFQLNLLKPEDTAVYYCNRGYLGYFRYDYWGQGTQVTVSS”, “high polyreactivity”.
For the sequence “QVQLVESGGGLVQAGGSLRLSCAASGGTFATYAMGWYRQAPGKERELVAAISWSGGSTYYAVSVKGRFTISRDNAKNTVYLQMNSLKPEDTAVYYCAAASRAPSGLYYYWGQGTQVTVSS”, the “polyreactivity (PSR sort gate)” value is “high polyreactivity”.
As for “QVQLVESGGGLVQAGGSLRLSCAASGGTFAVNVMGWYRQAPGKERELVAAITSNGGSTYYADSVNGRFTISRDNAKNTVYLQMNSLKPEDTAVYYCAAEGSGWYTGHYYYWGQGTQVTVSS”, the entry is “low polyreactivity”.
In the case of “QVQLVESGGGLVQAGGSLRLSCAASGGTFAVYAMGWYRQAPGKERELVAAIDSGGRTNYADSVKGRFTISRDNAKNTVYLQMNSLKPEDTAVYYCAADGGGQYVRYDYWGQGTQVTVSS”, the “polyreactivity (PSR sort gate)” value is listed as “high polyreactivity”.
To “QVQLVESGGGLVQAGGSLRLSCAASGGTFAWNAMGWYRQATGKERELVAAISFDGTSTYYADSVKGRFTISRDNAKNTVYLQMNSLKPEDTAVYYCNRVYLGYFRYDYWGQGTQVTVSS” belongs “high polyreactivity”; to “QVQLVESGGGLVQAGGSLRLSCAASGGTFAYKAMGWYRQAHGKERQLVAAITSSGGSTYYADSVKGRFTISRDNAKNTVYLQMNRLKPEDTAVYYCNRLRNRSLGGYYYWGQGTQVTVSS”, “high polyreactivity”; to “QVQLVESGGGLVQAGGSLRLSCAASGGTFDINDMGWYRQAPGKEREFVAAIDWSGGNTYYADSVKGRFIISRDNAKNTVYLQMNSLKPEDTAVYYCNARRKRSYDYWGQGTQVTVSS”, “low polyreactivity”.
On to “QVQLVESGGGLVQAGGSLRLSCAASGGTFDWNAMGWYRQAPGKERELVASISSSGGSTYYADSVNGRFTISRDNAKNTVYLQMNSLKPEDTAVYYCNAERKIIAYLWWYDYWGQGTQVTVSS”, for which the “polyreactivity (PSR sort gate)” value is “low polyreactivity”.
To “QVQLVESGGGLVQAGGSLRLSCAASGGTFFKNAMGWYRQAPGKERELVAVIDTISTSTYYADSVKGRFTISRDNAKNTVYLQMNSLKPEDTAVYYCAAEYGPGLTEGLYYYWGQGTQVTVSS” belongs “high polyreactivity”; to “QVQLVESGGGLVQAGGSLRLSCAASGGTFGAYAMGWYRQAPGKERELVAAINVGGGSTYYADSVKGRFTISRDNAKNTVDLQMNSLKPEATAGYYCAKDLYDGYWRGDYWGQGTQVTVSS”, “low polyreactivity”; to “QVQLVESGGGLVQAGGSLRLSCAASGGTFGTNAMGWYRQAPGKEREFVAAISRSGGSTNYADSVKGRFTISRDNAKNTVYLEMNILKPEDTAVYFCATRVIVVPRGGGYYSWGQGTQVTVSS”, “high polyreactivity”.
To “QVQLVESGGGLVQAGGSLRLSCAASGGTFGTNTMGWYRQAPGKERELVAAISRSGGSTYYADSVKGRFTISRDNAKNTVYLQMNCLKPEDTAVYYCNAVPRKYTDEFDYWGQGTQVTVSS” belongs “high polyreactivity”; to “QVQLVESGGGLVQAGGSLRLSCAASGGTFIYYAMGWYSQAPGKERELVAAISSGGSTYYADSVKGRFTISRDNAKNTVYLQMNSLKPEDTAVYYCAKRRAVQIVDLEYWRQGTQVTVSS”, “low polyreactivity”.
To “QVQLVESGGGLVQAGGSLRLSCAASGGTFKRYAMGWYRQAPGKERELVAAISGRGGSTYYADSVKGRFTISRDNAKTTVYLQMNSLKPEDTAVYYCNAGGSPQFYGRSKGDYWGQATQVTVSS” belongs “high polyreactivity”; to “QVQLVESGGGLVQAGGSLRLSCAASGGTFNRNAMGWYRQAPGKERELVAAISSSGGRTYYADSVKGRFTISRDNAKNTVYLQMNSLKPEDTAVYYCAAGRKGHGGAYDSWAQGTQVTVSS”, “high polyreactivity”.
In the case of “QVQLVESGGGLVQAGGSLRLSCAASGGTFNRYAMGWYRQAPGKERELVAAISWSGGSTYYADSVKGRFTISRDTAKNTVYLQMNSLKPEDTAVYYCNARNWYYEGDYWGQGTQVTVSS”, the “polyreactivity (PSR sort gate)” value is “high polyreactivity”.
As to “QVQLVESGGGLVQAGGSLRLSCAASGGTFPAYAMGWYRQAPGKERELVASISDDDSTYYADSVKGRFTISRDNAKNTVYLQMNSLKPEDTAVYYCNVEYWYYPSVEYYWTAYDYWGQGTQVTVSS”, the “polyreactivity (PSR sort gate)” value was “low polyreactivity”.
As for “QVQLVESGGGLVQAGGSLRLSCAASGGTFPRYAMGWYRQAPGKERELVAAINQSGGRTYYADSVKGRFTISRDNAKNTVYLQMNSLKPEDTADYYCAAGYGWRTSYLSYGYWGQGTQVTVSS”, the entry is “high polyreactivity”; as for “QVQLVESGGGLVQAGGSLRLSCAASGGTFPRYAMGWYRQAPGKERELVAAITRSGGRTYYADSVKGRFTISRDNAKNTVYLQMNSLKPEDTAVYYCAADAPDYRMDYWGQGTQVTVSS”, “high polyreactivity”; as for “QVQLVESGGGLVQAGGSLRLSCAASGGTFQSNAKGWYRQAPGKERELVASITSRGSSTYYADSVKGRFTISRDNAKNTVYLQMNSLKPEDTAVFYCAKGRSLQMYYKGGIKGGYWGQGTQVTVSS”, “low polyreactivity”.
As for “QVQLVESGGGLVQAGGSLRLSCAASGGTFRKNAMGWYRQAPGKERELVAAITKSGGSTYYADSVKGRFTISRDNAKNTVYLQMNSLKPEDTAVYYCNTYPGSTQPPYDYWGQGTQVTVSS”, the entry is “low polyreactivity”.
Regarding “QVQLVESGGGLVQAGGSLRLSCAASGGTFRRYAMGWYRQAPGKEREIVAAITISGGNTYYADSVKGRFTISRDNAKNTVYLQMNSLNPEDTAVYYCAADYAYNKYLSVEYWGQGTQVTVSS”, the “polyreactivity (PSR sort gate)” value is “low polyreactivity”.
For the sequence “QVQLVESGGGLVQAGGSLRLSCAASGGTFRRYTMGWYRQAPGKERELVAVISRSGGSTYYADSVKGRFTISRDNAKNTVYLQMNSLKPEDTAVYYCAVVYYNGYDWGQGTQVTVSS”, the “polyreactivity (PSR sort gate)” value is “high polyreactivity”.
Turning to “QVQLVESGGGLVQAGGSLRLSCAASGGTFRSNAMGWYRQAPGKERELVAAITRTGRTNYADSVKGRFTISRDNAKNTVYLQMNSLKPEDTAVYYCNAARYVREYDYWGQGTQVTVSS”, the “polyreactivity (PSR sort gate)” value was “high polyreactivity”.
To “QVQLVESGGGLVQAGGSLRLSCAASGGTFRVYAMGWYRQAPGKERELVAAISSGGSTNYADSVKGRFTISRDNAKNTVYLQMNSLKPEDTAVYYCNAKYRYRFARSPIYYYWGQGTQVTVSS” belongs “low polyreactivity”; to “QVQLVESGGGLVQAGGSLRLSCAASGGTFRVYAMGWYRQAPGKERELVAAITGRGGSTYYADSVKGRFTISRDNAKNTVYLQMNSLKPEDTAVYYCAAQAYWDFGSVARRDSWGQGTQVTVSS”, “low polyreactivity”; to “QVQLVESGGGLVQAGGSLRLSCAASGGTFSDNAMGWYRQAPGKERELVADIDIGGITYYADSVKGRFTISRDNAKNTVYLQMNSLIPEDTAVYYCAAVTTYYYYDVTDYAYEYYYWRQGTQVTVSS”, “low polyreactivity”.
To “QVQLVESGGGLVQAGGSLRLSCAASGGTFSFYTMGWYRQAPGKERELVAAISRSGGRTYYADSVKGRFTISRDHAQNTVYLQMNSLKPEDTAVYYCAAERFSNIYTTMGYWGQGTQVTVSS” belongs “high polyreactivity”; to “QVQLVESGGGLVQAGGSLRLSCAASGGTFSSNAMGWYRQAPGKERELVAAISGSGDRTYYADSVKGRFTISRDNAKNTVYLQMNSLKPEDTAVYYCAAEHETGAYYYWGQGTQVTVSS”, “high polyreactivity”.
As for “QVQLVESGGGLVQAGGSLRLSCAASGGTFSTYAMGWYRQAPGKERELVAAISSTGGSTYYADSVKGRFTISRDNAKNTVYLQMNSLKPEDTAVYYCAAYYSRGWLLYWDEMYYWGQGTQVTVSS”, the entry is “high polyreactivity”; as for “QVQLVESGGGLVQAGGSLRLSCAASGGTFTFKTMGWYRQAPGKERQLVAAISISGGSTYYADSVKGRFTISRDNAKNTVYLQMNSLKPEDTAVYYCAAQYVRTPSPEYDYWGQGTQVTVSS”, “high polyreactivity”.
For “QVQLVESGGGLVQAGGSLRLSCAASGGTFTFYAMGWYRQATGKERELVATINWSGGSTYYADSVKGRFTISRDNAKNTVYLQMNSLKPEDTAVYYCNAAWPYKSVEYWGQGTQVTVSS”, the “polyreactivity (PSR sort gate)” value was “low polyreactivity”.
To “QVQLVESGGGLVQAGGSLRLSCAASGGTFTYYTKGWYRQAPGKERELVAAISTGGRTYYADSVKGRFTISRDNAKNTVYLQMNSLKPEDTAVYYCNADYDETDVLGEFDYWGQGTQVTVSS” belongs “low polyreactivity”.
